From patent US8236540B2, “Isolated luciferases and the use thereof” (Bayer Intellectual Property GmbH, priority 2000, dated 2012) come the findings set out here.

One assay relates to Lu164. Put plainly: Coelenterazine derivatives as substrates of Lu164 (luminescence with CHO-pcDNA3-Lu164 supernatant). The class given is biochemical, Metridia longa. The following applies: 10 μl derivative (10^-4 M) + 10 μl supernatant of CHO-pcDNA3-Lu164, 8.7 kV for 30 seconds. The protocol:
In order to identify substrates for Lu164, 10 μl solutions of different coelenterazine derivatives (10^−4 M) were in each case incubated with 10 μl of supernatant from CHO-pcDNA3-Lu164 cell lines and the luminescence was measured. The coelenterazines were obtained from Molecular Probes (USA).

The next assay concerns Lu22. Kind of assay: Coelenterazine derivatives as substrates of Lu22. The class given is biochemical, Metridia longa. The following applies: coelenterazine derivatives 10^-4 M.
The next assay has as its system LuAL. Kind of assay: Coelenterazine derivatives as substrates of LuAL. Format: biochemical, Metridia longa. The following applies: coelenterazine derivatives 10^-4 M.
Assay [1] can be described thus: Luciferase activity (chemiluminescence) after constitutive eukaryotic expression in transiently transfected CHO cells. Format: cell-based. The following applies: CHO cells transiently transfected with pcDNA3 vectors, 5 μl, coelenterazine 10^-4 M, 9.5 kV for 30 seconds, room temperature. The protocol: Constitutive eukaryotic expression was affected in CHO cells by transfecting the cells with the expression plasmids pcDNA3-Lu164, pcDNA3-LuAL and pcDNA3-Lu22 in transient experiments. For this, 10 000 cells in DMEM-F12 medium were plated, per well, in 96-well microtiter plates and incubated overnight at 37° C. The transfection was effected using the Fugene 6 kit (Roche) in accordance with the manufacturer's instructions. The transfected cells were incubated overnight at 37° C. in DMEM-F12 medium. The chemiluminescence in the medium (5 ul) and the cell lysate (5 μl) was measured for 30 seconds at 9.5 kV in a luminometer, at room temperature, after adding coelenterazine (10^−4 M in methanol).
Values of 680 000, 670 000 and 510 000 RLU (relative light units) were measured in the case of Lu1 64, LuAL and Lu22, respectively. The expression was effected in CHO cells using the vectors pcDNA3-Lu164, pcDNA3-LuAL and pcDNA3-Lu22.

A short description of assay [2]: Luciferase activity (chemiluminescence) of bacterial lysate after adding coelenterazine. Format: biochemical. Particulars: 5 μl E. coli BL21(DE3) lysate (5 mg/ml), pTriplEx2 vectors, coelenterazine 10^-4 M, 9.5 kV for 30 seconds. On the procedure: The bacterial expression took place in the E. coli strain BL21(DE3) as a result of transforming the bacteria with the expression plasmids pTriplEX2-Lu164, pTriplEX2-LuAL and pTriplEX2-Lu22. The transformed bacteria were incubated at 37° C. for 3 hours in LB medium and expression was induced for 4 hours by adding IPTG to a final concentration of 1 mM. The induced bacteria were harvested by centrifugation, resuspended in PBS and disrupted by ultrasonication. Coelenterazine (10^−4 M in methanol) or luciferin (Firefly Luciferin) was added to 5 μl of the lysate (5 mg/ml) and the chemiluminescence was measured.
The measurement, in RLU (relative light units), took place at 9.5 kV for 30 seconds. Values of 230 000, 320 000 and 260 000 RLU were measured in the case of Lu1 64, LuAL and Lu22, respectively. The enzymes were expressed in E. coli BL21(DE3) using the vectors pTriplEx2-Lu164, pTriplEx2-LuAL and pTriplEx2-Lu22.

On to `Oc1ccc(Cc2nc3c(Cc4ccccc4)nc(-c4ccc(O)cc4)cn3c2O)cc1` [coelenterazine], for which the “substrate suitability for Lu164 (luminescence)” value with Lu164 was “optimal substrate”. In the assay with Lu22, the “substrate suitability for Lu22 (luminescence)” value was “optimal substrate”. In the assay on LuAL, the “substrate suitability for LuAL (luminescence)” value is on record as “optimal substrate”.

B1: LuAL: coelenterazine-dependent secreted luciferase from Metridia longa, amino acid sequence SEQ ID NO: 2 (protein, listed as Metridia longa)
chain: MDMRVIFALVFSSLVQAKSTEFDPNINIVGLEGKFGITNLETDLFTIWETMDVIKSDITDTDRVSNFVATETDANRGKMPGKKLPLAVIMEMEANAFKAGCTRGCLICLSKIKCTAKMKVYIPGRCHDYGGDKKTGQAGIVGAIVDIPEISGFKEMAPMEQFIAQVDLCATCTTGCLKGLANVKCSELLKKWLPGRCASFADKIQKEVHNIKGMAGDR
B1: the “chemiluminescence, RLU (relative light units)” value in assay [1] was 670 000 RLU; in assay [2], 320 000 RLU.

B2: Lu164: coelenterazine-dependent secreted luciferase from Metridia longa, amino acid sequence SEQ ID NO: 4 (protein, listed as Metridia longa)
chain: MDIKVVFTLVFSALVQAKSTEFDPNIDIVGLEGKFGITNLETDLFTIWETMEVMIKADIADTDRASNFVATETDANRGKMPGKKLPLAVIMEMEANAFKAGCTRGCLICLSKIKCTAKMKVYIPGRCHDYGGDKKTGQAGIVGAIVDIPEISGFKEMAPMEQFIAQVDRCASCTTGCLKGLANVKCSELLKKWLPDRCASFADKIQKEVHNIKGMAGDR
As for B2, the “chemiluminescence, RLU (relative light units)” value is recorded as 680 000 RLU in assay [1] and 230 000 RLU in assay [2].

B3: Lu22: coelenterazine-dependent secreted luciferase from Metridia longa, amino acid sequence SEQ ID NO: 6 (protein, listed as Metridia longa)
chain: MGVKLIFAVVCVAVAQAATIQENFEDIDLVAIGGSFASDVDANRGGHGGHPGKKMPKEVLMEMEANAKRAGCHRGCLVCLSHIKCTAQMQKFIPGRCHSYAGDKDSAQGGIAGGAIVDIPEIAGFKEMKPMEQFIAQVDLCEDCTTGCLKGLANVHCSDLLKKWLPSRCKTFASKIQSQVDTIKGLAGDR
Regarding B3, the figures for the “chemiluminescence, RLU (relative light units)” value in assay [1] and in assay [2] were 510 000 RLU and 260 000 RLU, respectively.
